According to the supplement of paper PMC10065799, “High-throughput profiling of sequence recognition by tyrosine kinases and SH2 domains using bacterial peptide display” (eLife, 2023):

Legend:
Grb2 SH2 = Grb2 SH2 (UniProt P62993); test: SH2 binding enrichment of the phosphorylated peptide, bacterial display (enrichment ratio); higher = better substrate or ligand; peptides without Tyr show the background
SHP2-C SH2 = test: as above
c-Src SH2 = test: as above
c-Abl (mouse) = test: phosphorylation enrichment, bacterial display (enrichment ratio); higher = better substrate or ligand; peptides without Tyr show the background
AncSZ = test: as above
Jak2 = Jak2 (UniProt O60674); test: as above
FGFR3 = FGFR3 (UniProt P22607); test: as above
EPHB1 = EPHB1 (UniProt P54762); test: as above
Fer (mouse) = test: as above
Hck = Hck (UniProt P08631); test: as above
Fyn = Fyn (UniProt P06241); test: as above
MERTK = MERTK (UniProt Q12866); test: as above
FGFR1 = FGFR1 (UniProt P11362); test: as above
EPHB2 = EPHB2 (UniProt P29323); test: as above
Fes = Fes (UniProt P07332); test: as above
c-Src = test: as above
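Throughout, for SH2 binding enrichment of the phosphorylated peptide, bacterial display: peptide library displayed on the E. coli surface as eCPX fusions, selected cells deep-sequenced, score is each peptide's frequency after selection divided by its frequency in the input.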
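Throughout, for phosphorylation enrichment, bacterial display: 11-residue human phosphosite peptides and single-mutation variants displayed on the E. coli surface, counted by deep sequencing, each peptide's frequency after selection divided by its frequency in the unselected input library; frequency after pTyr selection over input frequency; kinase dosed for 20-30% of maximal phosphorylation in three min.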

Chain of FGFR3 (P22607 whole entry, looked up): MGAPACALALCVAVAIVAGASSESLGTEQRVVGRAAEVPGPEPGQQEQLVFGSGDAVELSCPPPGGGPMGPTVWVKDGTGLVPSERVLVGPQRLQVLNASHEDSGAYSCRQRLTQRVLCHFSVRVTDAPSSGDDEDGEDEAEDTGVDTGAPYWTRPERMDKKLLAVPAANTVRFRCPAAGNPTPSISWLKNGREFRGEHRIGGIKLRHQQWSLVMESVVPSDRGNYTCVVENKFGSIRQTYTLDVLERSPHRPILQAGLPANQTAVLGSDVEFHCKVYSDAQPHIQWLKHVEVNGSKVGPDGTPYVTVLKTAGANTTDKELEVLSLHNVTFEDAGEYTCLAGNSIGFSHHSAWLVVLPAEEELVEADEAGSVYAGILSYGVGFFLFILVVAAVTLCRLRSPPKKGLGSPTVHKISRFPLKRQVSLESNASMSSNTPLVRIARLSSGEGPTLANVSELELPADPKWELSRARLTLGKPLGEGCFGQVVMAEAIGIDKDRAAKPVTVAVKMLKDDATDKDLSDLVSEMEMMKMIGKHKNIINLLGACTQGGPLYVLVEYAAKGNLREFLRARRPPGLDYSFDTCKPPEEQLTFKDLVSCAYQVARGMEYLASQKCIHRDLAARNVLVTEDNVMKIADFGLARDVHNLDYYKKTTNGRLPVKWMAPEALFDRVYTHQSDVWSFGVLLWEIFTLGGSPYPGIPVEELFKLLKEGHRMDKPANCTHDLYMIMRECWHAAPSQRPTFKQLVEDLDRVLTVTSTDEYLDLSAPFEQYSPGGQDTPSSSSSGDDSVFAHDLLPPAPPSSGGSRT
Chain of Fyn (P06241 whole entry, looked up): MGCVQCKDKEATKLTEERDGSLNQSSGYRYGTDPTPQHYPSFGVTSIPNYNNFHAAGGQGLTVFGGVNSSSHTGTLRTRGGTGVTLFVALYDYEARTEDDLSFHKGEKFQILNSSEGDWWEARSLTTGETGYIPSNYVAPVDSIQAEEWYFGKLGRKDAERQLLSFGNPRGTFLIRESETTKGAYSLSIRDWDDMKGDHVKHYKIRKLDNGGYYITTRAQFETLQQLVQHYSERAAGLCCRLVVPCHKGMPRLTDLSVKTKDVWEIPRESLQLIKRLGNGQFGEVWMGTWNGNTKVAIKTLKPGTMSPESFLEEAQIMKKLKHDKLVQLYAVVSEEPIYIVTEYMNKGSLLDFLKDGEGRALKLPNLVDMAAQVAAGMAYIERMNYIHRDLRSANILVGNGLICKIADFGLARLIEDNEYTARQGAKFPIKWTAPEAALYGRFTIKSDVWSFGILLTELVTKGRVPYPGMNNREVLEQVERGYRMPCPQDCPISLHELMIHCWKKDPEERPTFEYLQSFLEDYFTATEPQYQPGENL
Chain of MERTK (Q12866 whole entry, looked up): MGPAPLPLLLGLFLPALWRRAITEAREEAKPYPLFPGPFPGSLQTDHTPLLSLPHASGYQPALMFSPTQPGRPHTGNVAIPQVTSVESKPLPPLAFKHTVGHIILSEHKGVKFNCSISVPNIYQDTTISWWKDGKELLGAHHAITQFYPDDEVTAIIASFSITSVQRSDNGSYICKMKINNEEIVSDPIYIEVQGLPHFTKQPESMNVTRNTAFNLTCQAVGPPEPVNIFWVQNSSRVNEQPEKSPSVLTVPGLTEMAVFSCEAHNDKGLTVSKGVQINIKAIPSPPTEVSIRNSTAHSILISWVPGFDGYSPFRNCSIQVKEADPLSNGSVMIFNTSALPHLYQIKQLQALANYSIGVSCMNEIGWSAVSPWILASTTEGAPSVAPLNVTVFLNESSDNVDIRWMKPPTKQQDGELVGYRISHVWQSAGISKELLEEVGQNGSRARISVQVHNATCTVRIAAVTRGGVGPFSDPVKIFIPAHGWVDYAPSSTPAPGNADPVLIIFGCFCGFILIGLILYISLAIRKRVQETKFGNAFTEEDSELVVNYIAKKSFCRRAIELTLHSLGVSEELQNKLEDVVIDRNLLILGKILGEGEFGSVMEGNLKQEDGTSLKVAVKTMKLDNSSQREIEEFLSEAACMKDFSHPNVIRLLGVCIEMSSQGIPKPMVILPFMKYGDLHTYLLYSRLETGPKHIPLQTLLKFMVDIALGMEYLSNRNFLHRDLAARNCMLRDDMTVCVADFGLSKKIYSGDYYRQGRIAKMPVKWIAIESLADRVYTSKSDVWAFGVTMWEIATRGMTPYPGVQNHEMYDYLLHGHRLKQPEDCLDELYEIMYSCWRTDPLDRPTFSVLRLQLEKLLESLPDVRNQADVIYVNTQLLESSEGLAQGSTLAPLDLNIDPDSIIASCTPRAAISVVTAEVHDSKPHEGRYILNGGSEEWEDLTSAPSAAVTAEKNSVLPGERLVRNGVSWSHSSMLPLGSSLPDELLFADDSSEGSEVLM
Chain of EPHB1 (P54762 whole entry, looked up): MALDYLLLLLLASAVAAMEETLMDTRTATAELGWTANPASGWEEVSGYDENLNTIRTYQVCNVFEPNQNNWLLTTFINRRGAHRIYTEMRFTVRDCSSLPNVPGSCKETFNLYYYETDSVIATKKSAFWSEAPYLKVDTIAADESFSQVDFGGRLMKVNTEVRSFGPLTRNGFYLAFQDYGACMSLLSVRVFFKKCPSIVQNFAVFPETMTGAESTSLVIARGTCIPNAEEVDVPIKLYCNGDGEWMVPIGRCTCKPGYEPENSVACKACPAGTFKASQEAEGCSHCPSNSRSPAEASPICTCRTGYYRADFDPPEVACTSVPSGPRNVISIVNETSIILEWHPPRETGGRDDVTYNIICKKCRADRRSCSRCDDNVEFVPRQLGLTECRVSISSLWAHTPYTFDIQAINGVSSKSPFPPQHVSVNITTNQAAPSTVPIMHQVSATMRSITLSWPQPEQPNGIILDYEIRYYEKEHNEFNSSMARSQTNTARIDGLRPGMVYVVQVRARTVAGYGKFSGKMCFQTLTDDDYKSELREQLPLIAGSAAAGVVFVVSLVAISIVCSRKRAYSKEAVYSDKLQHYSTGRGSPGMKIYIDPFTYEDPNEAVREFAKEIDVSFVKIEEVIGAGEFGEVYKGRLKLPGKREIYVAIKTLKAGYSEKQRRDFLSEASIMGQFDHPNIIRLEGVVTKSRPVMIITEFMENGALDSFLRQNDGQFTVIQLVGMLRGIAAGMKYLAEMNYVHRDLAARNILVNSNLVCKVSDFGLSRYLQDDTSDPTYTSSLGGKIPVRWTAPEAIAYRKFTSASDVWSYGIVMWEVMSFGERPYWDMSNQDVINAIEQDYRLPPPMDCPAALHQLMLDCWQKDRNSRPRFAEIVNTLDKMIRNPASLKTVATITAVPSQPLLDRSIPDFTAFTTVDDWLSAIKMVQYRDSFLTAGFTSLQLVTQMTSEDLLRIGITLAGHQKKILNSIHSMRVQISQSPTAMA
Chain of Jak2 (O60674 whole entry, looked up): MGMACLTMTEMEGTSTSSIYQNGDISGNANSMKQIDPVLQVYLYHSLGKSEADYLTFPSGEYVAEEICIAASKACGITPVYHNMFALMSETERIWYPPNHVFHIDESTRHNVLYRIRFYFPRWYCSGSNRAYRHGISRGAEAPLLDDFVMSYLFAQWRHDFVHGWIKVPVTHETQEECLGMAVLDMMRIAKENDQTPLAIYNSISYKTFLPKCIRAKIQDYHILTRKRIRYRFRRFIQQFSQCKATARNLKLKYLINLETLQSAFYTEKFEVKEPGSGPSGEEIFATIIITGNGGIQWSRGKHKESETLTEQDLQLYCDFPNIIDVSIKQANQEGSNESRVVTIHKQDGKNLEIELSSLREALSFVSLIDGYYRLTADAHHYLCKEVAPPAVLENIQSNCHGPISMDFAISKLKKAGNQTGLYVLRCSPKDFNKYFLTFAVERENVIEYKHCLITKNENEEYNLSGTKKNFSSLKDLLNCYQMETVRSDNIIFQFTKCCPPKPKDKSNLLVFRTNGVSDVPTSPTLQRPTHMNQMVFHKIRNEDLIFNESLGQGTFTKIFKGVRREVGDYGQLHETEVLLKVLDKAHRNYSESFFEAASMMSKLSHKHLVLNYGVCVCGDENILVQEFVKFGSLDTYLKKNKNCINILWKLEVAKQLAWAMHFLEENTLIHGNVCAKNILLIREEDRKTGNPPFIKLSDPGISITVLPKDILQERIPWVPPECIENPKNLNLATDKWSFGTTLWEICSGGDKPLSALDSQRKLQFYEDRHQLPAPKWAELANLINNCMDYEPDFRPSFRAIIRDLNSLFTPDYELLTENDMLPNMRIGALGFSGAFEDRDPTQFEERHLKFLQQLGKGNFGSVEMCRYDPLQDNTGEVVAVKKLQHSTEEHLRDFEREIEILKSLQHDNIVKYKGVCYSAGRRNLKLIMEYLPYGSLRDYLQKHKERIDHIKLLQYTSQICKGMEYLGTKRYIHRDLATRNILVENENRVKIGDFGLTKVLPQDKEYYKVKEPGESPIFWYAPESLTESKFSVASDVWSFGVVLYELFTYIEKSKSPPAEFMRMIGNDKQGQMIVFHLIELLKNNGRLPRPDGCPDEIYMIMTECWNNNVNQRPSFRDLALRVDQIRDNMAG
Chain of Grb2 SH2 (P62993 whole entry, looked up): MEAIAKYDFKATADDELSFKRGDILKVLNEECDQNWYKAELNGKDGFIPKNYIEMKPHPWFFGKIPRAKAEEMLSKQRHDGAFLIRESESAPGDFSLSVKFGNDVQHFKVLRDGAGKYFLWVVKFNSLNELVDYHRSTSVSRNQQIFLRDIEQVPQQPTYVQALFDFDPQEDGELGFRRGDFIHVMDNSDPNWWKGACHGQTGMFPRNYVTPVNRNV

Sequence	SH2 binding enrichment (Grb2 SH2)	SH2 binding enrichment (SHP2-C SH2)	SH2 binding enrichment (c-Src SH2)	phosphorylation enrichment (c-Abl (mouse))	phosphorylation enrichment (AncSZ)	phosphorylation enrichment (Jak2)	phosphorylation enrichment (FGFR3)	phosphorylation enrichment (EPHB1)	phosphorylation enrichment (Fer (mouse))	phosphorylation enrichment (Hck)	phosphorylation enrichment (Fyn)	phosphorylation enrichment (MERTK)	phosphorylation enrichment (FGFR1)	phosphorylation enrichment (EPHB2)	phosphorylation enrichment (Fes)	phosphorylation enrichment (c-Src)
TLLERYGMTEI [ACSF3_Y355]	0.907	0.866	0.462	0.516	0.621	0.565	0.564	0.415	0.42	0.392	0.387	0.342	0.404	0.516	0.863	0.418
RGRSTYYWPSP [GAGE12J_Y9_R13S]	0.647	0.472	0.373	0.647	2.12	0.656	1.01	0.994	0.699	0.949	0.938	6.32	1.49	0.871	0.885	1.23
AGQEGYDRLRP [RAC1_Y64_D63G]	0.72	0.501	0.918	0.654	0.547	0.484	0.642	0.43	0.347	0.527	0.34	0.36	0.562	0.596	0.712	0.378
RKRQFYLYKGK [RSPO4_Y112_C107R]	0.965	0.428	0.378	0.296	0.613	0.228	0.4	0.343	0.494	0.358	0.503	0.602	0.437	0.615	0.432	0.44
SPPEVYAIMRG [NTRK1_Y757_C752S]	0.711	1.16	0.611	0.609	0.99	0.718	0.524	1.12	0.525	2.91	1.63	1.82	0.506	0.641	0.808	2.64
HVSISYDIPPT [GAB1_Y307]	0.688	0.548	0.702	0.735	1.33	0.826	1.01	0.522	0.732	0.644	0.645	6.11	0.677	1.18	1.24	0.478
FQCLRYIKQLG [SAMHD1_Y146_R143C]	0.662	0.658	0.528	0.809	0.954	1.11	0.596	0.468	0.428	0.452	0.427	0.423	0.382	0.434	1.25	0.44
LGPSDYFGEIV [PRKAR1A_Y323_A328V]	1.03	0.738	0.654	0.746	1.41	1.06	1.42	0.717	0.586	0.577	0.655	0.529	1.49	0.722	0.913	0.781
FKPGFYNLKEK [LAMA1_Y490_C485Y_YF]	0.915	0.887	0.383	0.473	0.601	0.499	0.616	0.434	0.61	0.489	0.466	0.566	0.513	0.396	0.689	0.466
RGRKVYLEDGF [PRIM2_Y201]	1	0.353	0.435	1.29	1.04	0.808	0.851	0.662	1.13	0.852	0.698	1.15	0.749	0.649	0.911	1.11
TDTAAYEERLR [SPTB_Y474_V478L]	0.849	0.924	0.504	0.48	0.936	0.742	0.71	0.49	0.458	0.516	0.67	0.482	0.668	0.648	0.914	0.478
SRLDSYVRSLP [TRAPPC1_Y133]	0.725	0.531	0.546	0.473	0.579	0.556	0.525	0.606	0.338	0.443	0.373	0.447	0.427	0.395	0.666	0.448
SSVPDYLAAVD [GLB1_Y154_D151V]	0.774	0.816	0.523	0.801	1.63	1.11	1.17	0.631	0.568	0.517	0.582	0.463	0.534	0.683	1.19	0.381
AKKMKYFEGVS [PRKDC_Y682_I680M]	0.725	0.539	0.496	0.404	0.493	0.499	0.434	0.393	0.311	0.351	0.419	0.318	0.395	0.3	0.559	0.394
